± gives the uncertainty stated by the source.
Experiment: self-splicing fitness, log relative to wild type (ln ratio); higher = more splicing; Tetrahymena group I intron in knt gene, E. coli kanamycin selection, DiMSum; sequences stand for … in CUCUCU…GGAGGGAAAAGUUAUCAGGCAUGCACCUGGUAGCUAGUCUUUAAACCAAUAGAUUGCAUCGGUUUAAAAGGCAAGACCGUCAAAUUGCGGGAAAGGGGUCAACAGCCGUUCAGUACCAAGUCUCAGGGGAAACUUUGAGAUGGCCUUGCAAAGGGUAUGGUAAUAAGCUGACGGACAUGGUCCUAACCACGCAGCCAAGUCCUAAGUCAACAGAUCUUCUGUUGAUAUGGAUGCAGUUCACAGACUAAAUGUCGGUCGGGGAAGAUGUAUUCUUCUCAUAAGAUAUAGUCGGACCUCUCCUUAAUGGGAGCUAGCGGAUGAAGUGAUGCAACACUGGAGCCGCUGGGAACUAAUUUGUAUGCGAAAGUAUAUUGAUUAGUUUUGGAGUACUCGUGGUCG
Method in brief: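 Pooled colonies went to amplicon sequencing on an Illumina HiSeq 2500 after six replicate transformations. The plates were LB agar with 100 μg/mL carbenicillin, 50 μM IPTG and 0.2% rhamnose, with or without 25 μg/mL kanamycin, incubated overnight at 37°C or 30°C. The E. coli BL21(DE3) library had all eight P1ex-region intron nucleotides randomised, the intron placed in the knt kanamycin-resistance gene on pET-22b(+). DiMSum fitness is the error-weighted combination of replicate fold changes, kanamycin against none, normalised to wild type.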

Sequence	self-splicing fitness (ln) (30 °C)	self-splicing fitness (ln) (37 °C)
GCGCAGCAAUAUUACGCAGA	-3.32 ± 0.22	-2.5 ± 0.24
AGGGAGCAAUAUUACGGGCU	-3.05 ± 0.27	-2.49 ± 0.3
AUCCAGCAAUAUUACGGCUG	-3.69 ± 0.39	-2.43 ± 0.27
AAUAAGCAAUAUUACGGACU	-0.768 ± 0.071	0.349 ± 0.1
AUGAAGCAAUAUUACGCACG	-1.09 ± 0.1	0.541 ± 0.14
UCAGAGCAAUAUUACGAUCA	-3.07 ± 0.35	-2.6 ± 0.31
UUGGAGCAAUAUUACGUCAG	-2.63 ± 0.26	-0.954 ± 0.2
CAUGAGCAAUAUUACGCCUC		-1.75 ± 0.42
AUGCAGCAAUAUUACGCCGG	-1.72 ± 0.15	-0.877 ± 0.21
AUAUAGCAAUAUUACGUGAU	-1.4 ± 0.092	-0.895 ± 0.14
GGAAAGCAAUAUUACGAACC	-3.32 ± 0.33	-1.2 ± 0.19
UGGAAGCAAUAUUACGGCGC	-1.23 ± 0.22	-0.241 ± 0.22
AGGCAGCAAUAUUACGAACG	-1.11 ± 0.14	0.48 ± 0.16
UUCUAGCAAUAUUACGGCCU	-3.05 ± 0.38	
CAAUAGCAAUAUUACGUCUG	-0.324 ± 0.1	-0.58 ± 0.13
CCUCAGCAAUAUUACGUUCC	-3.09 ± 0.15	-2.42 ± 0.33
AAUUAGCAAUAUUACGCCUG	-0.979 ± 0.14	-0.733 ± 0.21
UAAUAGCAAUAUUACGAGUU	-2.79 ± 0.23	-2.31 ± 0.27
UGGCAGCAAUAUUACGACAU	-1.746 ± 0.014	-0.812 ± 0.033
UCACAGCAAUAUUACGUGUA	-2.2 ± 0.089	-1.09 ± 0.088
AAUCAGCAAUAUUACGAACA	-0.526 ± 0.12	-0.161 ± 0.13
CUUAAGCAAUAUUACGUCCG	-0.258 ± 0.11	0.679 ± 0.19
AUGGAGCAAUAUUACGCCAU	-4.27 ± 0.46	-2.17 ± 0.34
AUUGAGCAAUAUUACGCUCA		-1.62 ± 0.4
CGGCAGCAAUAUUACGCGUA	-1.97 ± 0.29	-0.576 ± 0.16
GAGUAGCAAUAUUACGGCGG	-4.56 ± 0.36	-2.02 ± 0.21

Sequence	self-splicing fitness (ln) (30 °C)	self-splicing fitness (ln) (37 °C)
ACCCAGCAAUAUUACGUCUU	-1.25 ± 0.063	-0.446 ± 0.075
CACCAGCAAUAUUACGUCAA	-3.64 ± 0.42	-2.31 ± 0.19
CGUAAGCAAUAUUACGGAUU	-3.61 ± 0.3	-1.49 ± 0.23
AGAUAGCAAUAUUACGGUUC	-1.77 ± 0.12	-0.791 ± 0.19
UCGUAGCAAUAUUACGUGCU	-2.98 ± 0.26	-2.83 ± 0.48
UUCUAGCAAUAUUACGUGGC	-3.1 ± 0.24	
ACGUAGCAAUAUUACGUGGG	-3.6 ± 0.16	-3.07 ± 0.18
GAGGAGCAAUAUUACGAUCC	-1.49 ± 0.31	-1.12 ± 0.27
CCUGAGCAAUAUUACGGGUC	-2.95 ± 0.17	-2.87 ± 0.27
CGUGAGCAAUAUUACGCCUC	-2.12 ± 0.31	-1.07 ± 0.4
GCAGAGCAAUAUUACGUCAU		-1.4 ± 0.42
UGUUAGCAAUAUUACGUAUA	-1.7 ± 0.12	-0.458 ± 0.11
GGGAAGCAAUAUUACGCAUG	-1.38 ± 0.16	-0.366 ± 0.2
GCACAGCAAUAUUACGGAUC	-0.505 ± 0.053	-0.336 ± 0.061
CGGCAGCAAUAUUACGAAGG	-1.13 ± 0.12	0.373 ± 0.17
AUGUAGCAAUAUUACGAUGA	-0.624 ± 0.15	-1.66 ± 0.15
GAGGAGCAAUAUUACGCUGA	-2.84 ± 0.49	-2.07 ± 0.34
GCAUAGCAAUAUUACGAGAA	-2.57 ± 0.46	-2.67 ± 0.41
CUUGAGCAAUAUUACGCUUG		-1.83 ± 0.41
AGGCAGCAAUAUUACGGGCA	-1.39 ± 0.2	-0.422 ± 0.17
ACACAGCAAUAUUACGUAGG	-2.48 ± 0.087	-1.64 ± 0.09
ACAGAGCAAUAUUACGCCGG	-2.81 ± 0.25	-2.4 ± 0.33
AGCUAGCAAUAUUACGUUGA	-2.68 ± 0.23	-1.69 ± 0.16
CUGAAGCAAUAUUACGAUGC	-3.46 ± 0.21	-2.86 ± 0.33
CAUGAGCAAUAUUACGCGUG	-4.92 ± 0.36	-2.71 ± 0.26
ACACAGCAAUAUUACGCUCC	-1.47 ± 0.078	-0.566 ± 0.1

Sequence	self-splicing fitness (ln) (30 °C)	self-splicing fitness (ln) (37 °C)
UUCUAGCAAUAUUACGUGAC	-3.69 ± 0.31	-1.61 ± 0.24
UGAUAGCAAUAUUACGCGCU	-0.577 ± 0.11	-0.36 ± 0.14
UGAAAGCAAUAUUACGGGUG	-0.621 ± 0.051	-0.399 ± 0.069
GUCCAGCAAUAUUACGCCUU	-0.571 ± 0.1	-0.309 ± 0.11
GACAAGCAAUAUUACGAUUA	-0.415 ± 0.096	-0.117 ± 0.1
CAGUAGCAAUAUUACGACAA	-1.98 ± 0.19	-1.62 ± 0.15
CGUUAGCAAUAUUACGGCUC	-1.75 ± 0.33	0.277 ± 0.22
GAUUAGCAAUAUUACGAGGU	-3.27 ± 0.18	-3.89 ± 0.33
AAUAAGCAAUAUUACGGUCA	-0.268 ± 0.084	0.155 ± 0.12
CACGAGCAAUAUUACGCCUU	-2.3 ± 0.2	-2.76 ± 0.4
UCUUAGCAAUAUUACGCCUA		-2.71 ± 0.41
CCGCAGCAAUAUUACGUUCA	-3.89 ± 0.27	-2 ± 0.16
UUAGAGCAAUAUUACGGAGC	-3.62 ± 0.29	-2.31 ± 0.22
UUGAAGCAAUAUUACGACCC	-3.15 ± 0.28	-0.772 ± 0.17
UGGUAGCAAUAUUACGAACA	-0.325 ± 0.15	0.205 ± 0.27
UCAUAGCAAUAUUACGUUCA	-1.73 ± 0.1	-1.57 ± 0.1
AGUAAGCAAUAUUACGUGAA	-3.24 ± 0.15	-1.68 ± 0.13
UUGCAGCAAUAUUACGUUUA	-1.31 ± 0.096	-1.02 ± 0.088
CUGAAGCAAUAUUACGCCCU	-3.03 ± 0.22	-2.86 ± 0.47
CUCUAGCAAUAUUACGGAGU	-3.04 ± 0.29	-2.61 ± 0.25
CGCGAGCAAUAUUACGCCGU	-3.93 ± 0.47	-3.01 ± 0.4
UCGCAGCAAUAUUACGGCAC	-1.94 ± 0.34	-2.67 ± 0.29
UUGUAGCAAUAUUACGGCGA	0.174 ± 0.1	0.227 ± 0.14
UCCCAGCAAUAUUACGCGCU	-4.15 ± 0.33	-2.84 ± 0.34
GUGUAGCAAUAUUACGUGGA	-3.41 ± 0.3	-2.04 ± 0.23
